One may read the Kd as the concentration at which binding is half-saturated. The koff is a measure of how fast the partners let go of each other. By kon is commonly meant the rate constant with which the complex forms.

The test deals with T1, recombinant protein of human IL-4Rα extracellular region (human, UniProt P24394 26-232).
T1 construct: range 26-232; Made in HEK293-6E cells, purified on nickel chelate; Used biotin-labeled on SA probes in the Fortebio assays and unlabeled as ELISA coat; also called hIL-4Rα; IL-4Rα recombinant protein
T1 sequence: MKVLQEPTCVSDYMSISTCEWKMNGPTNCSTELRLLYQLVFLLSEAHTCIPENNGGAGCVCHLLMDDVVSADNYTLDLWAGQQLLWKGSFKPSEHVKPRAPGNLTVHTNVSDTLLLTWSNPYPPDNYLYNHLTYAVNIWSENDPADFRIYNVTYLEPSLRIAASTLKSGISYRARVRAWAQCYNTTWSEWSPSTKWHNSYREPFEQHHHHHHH
The test is described as follows: BLI (Fortebio), biotin-labeled hIL-4Rα on SA probe, antibody 50-3.125 ug/ml. Here is the method: PBS is added to any column of the 96-well plate, 100 ul/well, and the 96-well plate is placed in the probe holder cassette. When taking the probe, be careful to completely hang it on the holder to prevent the probe from touching the holder. The immobilized biotin-labeled hIL-4Rα is diluted to 5 ug/ml with PBS; a new 96-well plate is taken, and the diluted immobilized material is added column by column, 100 ul/well. […] A new 96-well plate is taken, and PBS is added to columns 1 and 2, 100 ul/well (the same buffer for both baseline and dissociation); the diluted immobilized material is added to column 3; the analyte diluted according to the series is added to column 4; 10 mM HCl (pH 1.9) is added to column 11; and PBS is added to column 12. The SA probe binds very strongly to the immobilized biotin material. When regenerated, the immobilized material is still bound to the probe, so it can be reused after immobilizing only once. Then the experimental method is set up in the Fortebio software, and then the experimental program is run for detection.

B1: Clone 25D6 (antibody, V domains shown)
VH: QVQLQQSGAELVKPGASVKMSCKASVNTFTGYNMHWVKQTPGQGLEWIGGLHPGNGDTSYNQKFKGKATLTADKSSNTAYMQLSSLTSEDSAVYYCALTTAGRAWFAYWGQGTLVTVSA
VL: DIQMTQSTSSLSASLGDRVTISCRASQDISNYLNWYQQKPDGTVKLLIYYTSRLHSGVPSRFSGSGSGTDYSLTISNLEQEDIATYFCQQGNTLPWTFGGGTKLEIK
notes: Chimeric IgG: mouse variable regions on human heavy and light chain constant regions (section 6)
As to B1, the Kd is 5.9 nM, the koff was determined as 0.000157 s⁻¹ and the kon was found to be 26500 M⁻¹ s⁻¹.

B2: Clone 36F4 (antibody, V domains shown)
VH: QVQLQQSGAELVKPGASVKMSCKASVNIFTGYNMHWVKQTPGQGLEWIGGLHPGNGDTSYNQKFKDKATLTADRSSNTAYMQLSSLTSEDSAVYYCALTTAGRAWFAYWGQGTLVTVSA
VL: DIKMTQSTSSLSASLGDRVTISCRASQDISNYLNWYQQKPDGTVKLLIYYTSRLHSGVPSRFSGSGSGTDYSLTISNLEQEDIATYFCQQGNTLPPWTFGGGTKLEIK
notes: as for B1
Consider B2, for which the Kd was determined as 1.8 nM, the koff stood at 9.37e-05 s⁻¹ and the kon stood at 50900 M⁻¹ s⁻¹.

B3: Clone 1D8 (antibody, V domains shown)
VH: QVQLQQSGAELVKPGASVKMSCTATGNIFTGYNMHWIKQTPGQGLEWIGGLHPGNGDTSYNQKFKGRATLTADKSSSSAYMQLSSLTSEDSAVYYCALTTAGRAWFAYWGQGTLVTVSA
VL: DIQMTQTTSSLSASLGDRVTISCRASQDISNYLNWYQQKPDGTVKLLIYYTSRLHSGVPSRFSGSGSGTDYSLTISNLEQEDIATYFCQQGNTLHTFGGGTKLEIK
notes: as for B1
Take B3: the Kd was found to be 8.06 nM, the koff came out at 0.000566 s⁻¹ and the kon was 70100 M⁻¹ s⁻¹.

B4: Clone 1H9 (antibody, V domains shown)
VH: QVQLQQSGAELVKPGASVKMSCKASVNTFAGYNMHWVKQTPGQGLEWIGGLHPGNGDTSYNQKFKGKATLTADKSSNTAYMQLSSLTSEDSAVYYCALTTAGRAWFAYWGQGTLVTVSA
VL: DIQMIQSTSSLSASLGDRVTISCRASQDISNYLNWYQQKPDGTVKLLIYYTSRLHSGVPSRFSGSGSGTDYSLTISNLEQEDIATYFCQQGNTLPWTFGGGTKLEIK
notes: as for B1
As to B4, the Kd was 8.9 nM, the koff was found to be 0.000262 s⁻¹ and the kon worked out at 29300 M⁻¹ s⁻¹.

B5: Clone 34A2 (antibody, V domains shown)
VH: EVQLQQSGAELVKPGASVKMSCKASVNIFTSYNMHWVKQTPGQGLEWIGGLHPGNGDTSYNQNFKGKATLTADKSSSTAYMQVSNLTSEDSAVYYCVLTTAGRAWFAYWGQGTLVTVSA
VL: DIQMTQSTSSLSASLGDRVTISCRASQDISNYLNWYQQKPDGTVKLLIYYTSRLHSGVPSRFSGSGSGTDYSLTISNLEQEDIATYFCQQGNTLPWTFGGGTKLEIK
notes: as for B1
In the case of B5, the Kd is below 0.001 nM, the koff was below 1e-07 s⁻¹ and the kon stood at 29000 M⁻¹ s⁻¹.

B6: Clone 1A6 (antibody, V domains shown)
VH: QVQLQQSGTELVKPGASVKMSCKASVNTFTGYNMHWIKQTPGQGLEWIGGLHPGNGDSSYNQKFKGRATLTADKSSNTAYMQLSSLTSEDSAVYYCALTTAGRAWFPYWGQGTLVTVSA
VL: DIQMTQTTSSLSASLGDRVTISCRASQDISNYLNWYQQKPDGTVKLLIYYTSRLHSGVPSRFSGSGSGTDYSLTISNLEQEDIATYFCQQGNTLPPTFGGGTKLEIK
notes: as for B1
As for B6, the Kd was determined as 11.3 nM, the koff stood at 0.000602 s⁻¹ and the kon is 53000 M⁻¹ s⁻¹.

B7: Clone 2H1 (antibody, V domains shown)
VH: QVQLQQSGTELVKPGASVKMSCKASVNTFTGYNMHWIKQTPGQGLEWIGGLHPGNGDSSYNQKFKGRATLTADKSSNTAYMQLSSLTSEDSAVYYCALTTAGRAWFPYWGQGTLVTVSA
VL: DIQMIQSTSSLSASLGDRVTISCRASQDISNYLNWYQQKPDGTVKLLIYYTSRLHSGVPSRFRGSGSGTDYSLTISNLEQEDIATYFCQQGNTLPLTFGAGTKLELK
notes: as for B1
Take B7: the Kd is 5.27 nM, the koff worked out at 0.000377 s⁻¹ and the kon is 71600 M⁻¹ s⁻¹.

B8: Clone 25G9 (antibody, V domains shown)
VH: EVQLKESGAELVKPGASVKMSCKASVNIFTGYNMHWVKQTPGQGLEWIGGLHPGNGDTSYNQKFKDKATLTADRSSNTAYMQLSSLTSEDSAVYYCALTTAGRAWFAYWGQGTLVTVSA
VL: DIQMTQSTSSLSASLGDRVTISCRASQDISNYLNWYQQKPDGTVKLLIYYTSRLHSGVPSRFSGSGSGTDYSLTISNLEQEDIATYFCQQGNTLPWTFGGGTRLEIK
notes: as for B1
With B8, the dissociation constant (Kd) was below 0.001 nM, the koff is below 1e-07 s⁻¹ and the kon stood at 37900 M⁻¹ s⁻¹.

B9: Clone 35A7 (antibody, V domains shown)
VH: QVQLKQSGAELVKPGASVKMSCTASGNIFSGYNMHWIKQTPGQGLEWIGGLHPGNGDTSYNQKFKGKATLTADKSSNTAYMQLSSLTSEDSAVYYCALTTAGRAWFAYWGQGTLVTVSA
VL: DIQMNQSTSSLSASLGDRVTISCRASQDISNYLNWYQQKPDGTIKLLIYYTSRLYSGVPSRFSGSGSGTDYSLTISNLEEEDIATYFCQQGNTIPYTFGGGTKLEIK
notes: Chimeric IgG (section 6)
Take B9: the Kd was below 0.001 nM, the koff was below 1e-07 s⁻¹ and the association rate constant (kon) turned out to be 24700 M⁻¹ s⁻¹.

B10: Clone 31B9 (antibody, V domains shown)
VH: EVQLQQSGAELVKPGASVKMSCKASVNIFTGYNMHWVKQTPGQGLEWIGGLHPGNGDTSYNQKFKDKATLTADRSSNTAYMQLSSLTSEDSAVYYCALTTAGRAWFAYWGQGTLVTVSA
VL: DIQMTQSTSSLSASLGDRVTISCRASQDISNYLNWYQQKPDGTVKLLIYYTSRLHSGVPSRFSGSGSGTDYSLTISNLEQEDIATYFCQQGNTLPWTFGGGTKLEIK
notes: as for B1
As for B10, the Kd was 1.9 nM, the koff stood at 6.28e-05 s⁻¹ and the kon stood at 33000 M⁻¹ s⁻¹.

B11: Clone 34H11 (antibody, V domains shown)
VH: QVQLQESGAELVKPGASVKMSCKASVNTFTGYNMHWVKQTPGQGLEWIGGLHPGNGDTSYNQKFKGKATLTADKSSNTAYMQLSSLTSEDSAVYYCALTTAGRAWFAYWGQGTLVTVSA
VL: DIQMTQTTSSLSASLGDRVTISCRASQDISNYLNWYQQKPDGTVKLLIYYTSRLHSGVPSRFSGSGSGTDYSLTISNLEQEDVATYFCQQGNTLPWTFGGGTKLEIK
notes: as for B1
On to B11, for which the Kd was determined as 6.6 nM, the koff stood at 0.000176 s⁻¹ and the association rate constant (kon) turned out to be 26900 M⁻¹ s⁻¹.

B12: Clone 35D5 (antibody, V domains shown)
VH: QVQLKQSGAELVKPGASVKMSCKASVNTFTGYNMHWVKQTPGQGLEWIGGLHPGNGDTSYNQKFKGKATLTADKSSNTAYMQLSSLTSEDSAVYYCALTTAGRAWFAYWGQGTLVTVSA
VL: DIQMTQSTSSLSASLGDRVTISCRASQDISNYLNWYQQKPDGTVKLLIYYTSRLHSGVPSRFSGSGSGTDYSLTISNLEQEDIATYFCQQGNTLPWTFGGGTKLEIK
notes: as for B1
Turning to B12, the Kd stood at 1.3 nM, the koff was found to be 5.05e-05 s⁻¹ and the kon was determined as 38700 M⁻¹ s⁻¹.

B13: Clone 24G10 (antibody, V domains shown)
VH: EVKLVESGGGLVKPGGSLKLSCAASGFTFSRYAMSWVRQTPEKRLEWVATISSGGSYTNYSDSVKGRFTISRDNVKNTLYLQMSSLKSEDSAMYYCARATARATEFAYWGQGTLVTVSA
VL: DIQMTQSTSSLSASLGDRVTISCRASQDISNYLNWYQQKPDGTVKLLIYYTSRLYSGVPSRFSGSGSGTDYSLTISNLEQEDIATYFCQQGNTLPPTFGGGTKLEI
notes: as for B1
B13: the Kd came out at 0.94 nM, the koff was found to be 2.37e-05 s⁻¹ and the kon is 25300 M⁻¹ s⁻¹.

The values are drawn from patent US20240092920A1 (KEYMED BIOSCIENCES, published 2024).
